Test results published in the supplement of paper PMC10567573.

B1: VAMP4 (parent)
chain: IMALVAAILLLVIIILIVMKYRT
B2: SFRS1 (parent)
chain: YSPRRSRGSPRYSPRHSRSRSRT

Variants of: B1
Experiment: protein stability index of a GFP-peptide fusion (GPS, HEK-293T) (PSI 1-6); higher = more stable
Settings: c terminus: native
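Also: lentivirally expressed fusions sorted by FACS into six bins by GFP to DsRed ratio, PSI derived from sequencing read proportions per bin multiplied by bin number.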

Protein stability index: each site, then its substitutions
R22: C 4.02 | F 3.85 | N 3.2 | G 3.6 | K 3.58 | A 3.96 | W 4.25 | D 4.01 | T 3.93 | Y 3.56 | M 4.08 | L 3.4 | S 3.82 | H 3.86 | V 3.7 | P 3.06 | I 3.65 | E 3.24 | Q 3.39
L16: Q 3.13 | V 3.35 | K 2.73 | P 3.2 | F 3.6 | C 3.65 | M 2.39 | G 3.18 | R 2.33 | I 3.44 | S 3.5 | Y 3.25 | W 3.28 | D 2.44 | H 3.18 | A 3.57 | E 3.2 | N 2.73 | T 3.47
V12: T 3.16 | K 2.06 | S 3.17 | C 2.97 | F 3.47 | E 1.6 | P 2.62 | Q 2.54 | A 3.62 | I 3.64 | G 3.32 | Y 2.47 | R 2.49 | W 2.65 | H 2.3 | N 2.48 | L 3.23 | D 1.65 | M 3.03
T23: D 3.27 | I 2.95 | N 3.18 | A 3.69 | E 2.74 | P 3.28 | Y 3.37 | R 2.99 | V 3.3 | K 2.31 | W 3.69 | S 3.11 | L 3.06 | Q 3.1 | H 3.48 | G 3.81 | F 3.3 | M 3.39 | C 3.53
L11: Q 2.6 | M 3.33 | V 3.46 | W 2.84 | F 3.58 | I 3.33 | N 2.25 | H 2.71 | S 3.39 | R 2.98 | G 3.71 | E 2.27 | T 3.56 | P 3.43 | Y 2.68 | K 2.61
I15: E 2.43 | M 2.88 | H 1.69 | N 1.95 | G 2.98 | P 3.92 | R 1.9 | V 3.25 | F 2.79 | C 3.51 | Y 2.26 | S 2.65 | D 2 | W 1.84 | L 3.26 | T 3.08 | K 2.04 | A 3.05 | Q 1.89
I14: W 2.71 | G 3.44 | F 3.48 | H 1.92 | Y 3.26 | D 1.5 | E 2.02 | Q 2.23 | V 3.25 | C 3.36 | S 3.02 | P 3.1 | A 3.33 | K 1.92 | T 3.25 | R 2.56 | N 2.17 | L 3.19 | M 3.09
I13: R 3.08 | L 3.81 | D 1.4 | G 3.21 | P 2.66 | T 3.82 | W 3.63 | N 3.58 | A 3.86 | C 3.25 | S 3.36 | Y 3.22 | F 3.46 | E 1.77 | Q 2.86 | H 2.94 | V 2.8 | K 1.98 | M 3.97
M19: H 3.08 | Q 2.51 | F 3.48 | K 2.77 | P 2.66 | W 3.11 | I 3.64 | Y 3.09 | S 3.33 | T 2.72 | G 2.99 | A 2.88 | V 3.41 | R 2.91 | N 3.33 | C 2.78 | D 3.19 | L 3.68 | E 3.07
Y21: A 3.11 | C 3.21 | E 2.71 | R 1.81 | G 3.22 | S 3.37 | W 3.48 | I 3.26 | Q 2.99 | P 2.98 | N 3.32 | L 3.28 | M 3.42 | F 3.56 | K 1.98 | T 3.13 | D 2.84 | H 2.58 | V 2.96
K20: P 2.62 | V 4.06 | T 3.59 | S 4.02 | M 3.62 | H 3.54 | D 3.1 | I 3.75 | C 3.3 | R 3.15 | E 3.49 | L 2.93 | W 4.14 | Y 3.38 | G 3.37 | Q 2.82 | F 3.67 | N 3.25 | A 3.68
I17: N 2.79 | M 3.45 | Q 2.31 | K 2.9 | F 2.58 | Y 2.21 | L 2.96 | D 1.74 | W 2.44 | E 2.57 | H 1.85 | C 3.11 | V 3.11 | T 3.26 | G 2.83 | S 3.07 | P 2.77 | R 2.33 | A 3.54
V18: I 3.54 | R 1.27 | M 3.39 | K 1.68 | W 3.21 | C 2.93 | E 2.91 | A 2.6 | D 2.85 | T 2.87 | N 2.33 | P 2.72 | H 2.38 | F 3.09 | G 2.66 | S 2.56 | Y 2.97 | Q 2.04 | L 3.26

Variants of: B2
Experiment: as above
Settings: c terminus: native

Protein stability index of substitutions, site by site:
S2: H 2.75 | R 4.84 | K 3.9 | N 3.54 | Q 3.98 | W 4.07 | E 4.12 | A 2 | G 4.27 | I 3.27 | L 4.2 | P 3.71 | M 3.77 | T 3.19 | V 1.85 | Y 3.62 | D 4.09 | C 1.94 | F 3.52
R5: I 2.33 | H 4.37 | C 2.92 | K 3.14 | G 3 | E 3.54 | D 3.53 | N 3.24 | Q 3.5 | L 2.58 | F 2.52 | A 3.98 | P 2.75 | M 3.58
P3: W 3.11 | G 4.3 | T 4.22 | R 4.27 | A 3.81 | S 4.21 | L 3.8 | H 4.16 | Y 4.24 | I 2.8 | K 3.56 | C 3.4 | M 3.58 | D 4.51 | Q 3.72 | N 4.15 | E 4.18 | V 4.06 | F 3.91
R4: Y 2.56 | C 2.28 | G 3.82 | P 3.36 | A 2.82 | I 2.65 | N 3.13 | D 2.74 | F 2.57 | E 3.12 | M 2.76 | S 3.56 | W 2.38 | K 3.71 | L 2.76 | Q 3.53 | V 3.24 | H 3.29 | T 2.83
Y1: W 4.08 | P 4.55 | T 4.43 | A 4.29 | H 4.86 | C 3.99 | D 3.9 | E 3.92 | V 4.65 | L 3.74 | K 4.1 | I 4.17 | Q 4.55 | G 4.65 | F 2.96 | S 4.36 | M 3.9 | R 5.25 | N 5.03
